From publication PMC8600086
Several values for one entry are separate records, joined by “and”; a condition that tells them apart may be missing. Identical values can stand only once.

Biological target: recombinant MH8SR-tagged PfKelch13^337-726 (Plasmodium falciparum)
Test: SEC

For “recombinant MH8SR-tagged PfKelch13^337-726 (domain or fragment)”, the stoichiometry N was 2 and 4.
